Experimental data reported in article PMC4565553.
Positions count from the first letter of the chain named. Each block holds one molecule with its values, some of them ahead of it.

Key:
Test in all cases: BLI; label-free in vitro kinetics assay; FLAG-tagged IPS1 CARD (2.5 μg/mL) immobilised on anti-FLAG probes; RLR CARDs at 0.001–100 μM in 1x Kinetics Buffer (ForteBio) with BSA, pH 7.0; 60 min association, 60 min dissociation; Kd = half-maximal steady-state binding, Km = half-maximal initial binding rate, one-site fit, 3 replicates; no ubiquitin
[1] = target: B. floridae IPS1 CARD (Branchiostoma floridae)
[2] = target: human IPS1 CARD (1–92), FLAG-tagged (human) (UniProt Q7Z434)
[3] = target: mutant human IPS1 CARD (Arg66,67—Glu), FLAG-tagged (human) (UniProt Q7Z434)

- fold lower Kd than the negative control (human CASP9 CARD) [1]: 5.4 fold
- fold lower Km than the negative control (human CASP9 CARD) [1]: 6.1 fold
Molecule: B. floridae RIG-I CARD1+2 (domain or fragment)

- Kd [2]: 33.1 nM
- Km (half-maximal initial binding rate) [2]: 0.0389 µM
- fold stronger binding than human caspase9 CARD (negative control) [2]: 70 fold
- fold increase in Kd against wild-type IPS1 CARD [3]: 34.6 fold
- fold increase in Km against wild-type IPS1 CARD [3]: 43.8 fold
B1: human RIG-I CARD1 (1–87) (domain or fragment)
chain: MTTEQRRSLQAFQDYIRKTLDPTYILSYMAPWFREEEVQYIQAEKNNKGPMEAATLFLKFLLELQEEGWFRGFLDALDHAGYSGLYE

- fold increase in Kd against wild-type RIG-I CARD1 [2]: 10 fold
- fold increase in Km against wild-type RIG-I CARD1 [2]: 6.9 fold
B2: mutant human RIG-I CARD1 (Glu66,67—Arg) (domain or fragment)
chain: B1 chain with E66R, E67R

- Kd [2]: 813 nM
- Km (half-maximal initial binding rate) [2]: 0.55 µM
B3: human MDA5 CARD1 (1–96) (domain or fragment)
chain: MSNGYSTDENFRYLISCFRARVKMYIQVEPVLDYLTFLPAEVKEQIQRTVATSGNMQAVELLLSTLEKGVWHLGWTREFVEALRRTGSPLAARYMN
